Results published in publication doi:10.1101/2025.07.07.663466.

Target: recombinant human mitochondrial Hsp60 (human), P10809
Test: native gel or EMSA + SEC
Settings: remark: other sources report otherwise

B1: recombinant human mitochondrial Hsp60, P10809 27-573 (natural protein)
chain: AKDVKFGADARALMLQGVDLLADAVAVTMGPKGRTVIIEQSWGSPKVTKDGVTVAKSIDLKDKYKNIGAKLVQDVANNTNEEAGDGTTTATVLARSIAKEGFEKISKGANPVEIRRGVMLAVDAVIAELKKQSKPVTTPEEIAQVATISANGDKEIGNIISDAMKKVGRKGVITVKDGKTLNDELEIIEGMKFDRGYISPYFINTSKGQKCEFQDAYVLLSEKKISSIQSIVPALEIANAHRKPLVIIAEDVDGEALSTLVLNRLKVGLQVVAVKAPGFGDNRKNQLKDMAIATGGAVFGEEGLTLNLEDVQPHDLGKVGEVIVTKDDAMLLKGKGDKAQIEKRIQEIIEQLDVTTSEYEKEKLNERLAKLSDGVAVLKVGGTSDVEVNEKKDRVTDALNATRAAVEEGIVLGGGCALLRCIPALDSLTPANEDQKIGIEIIKRTLKIPAMTIAKNAGVEGSLIVEKIMQSSSEVGYDAMAGDFVNMVEKGIIDPTKVVRTALLDAAGVASLLTTAEVVVTEIPKEEKDPGMGAMGGMGGGMGGGMF
**Q.** B1 was tested. Which stoichiometry N did it give?
**A.** 7
